Tests used:
Settings in all cases: modification not given
[1] = target: V2R (Homo sapiens), P30518; assay: radioligand
[2] = target: V1aR (Homo sapiens), P37288; assay: radioligand displacement
[3] = target: T1, OTR (Homo sapiens), P30559; assay: radioligand displacement
T1 chain: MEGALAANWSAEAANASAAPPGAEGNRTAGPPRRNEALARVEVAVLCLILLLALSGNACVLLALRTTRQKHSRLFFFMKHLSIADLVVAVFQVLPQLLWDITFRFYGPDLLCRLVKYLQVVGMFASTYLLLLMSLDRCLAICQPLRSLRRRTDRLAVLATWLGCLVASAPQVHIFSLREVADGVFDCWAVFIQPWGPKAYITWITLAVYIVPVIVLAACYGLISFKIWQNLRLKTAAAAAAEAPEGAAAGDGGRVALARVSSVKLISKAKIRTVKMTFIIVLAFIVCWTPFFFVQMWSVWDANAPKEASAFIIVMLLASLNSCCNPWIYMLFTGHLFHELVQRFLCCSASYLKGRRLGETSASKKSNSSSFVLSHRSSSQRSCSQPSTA

[4] = target: T2, V1bR (Homo sapiens), P47901; assay: radioligand displacement
T2 chain: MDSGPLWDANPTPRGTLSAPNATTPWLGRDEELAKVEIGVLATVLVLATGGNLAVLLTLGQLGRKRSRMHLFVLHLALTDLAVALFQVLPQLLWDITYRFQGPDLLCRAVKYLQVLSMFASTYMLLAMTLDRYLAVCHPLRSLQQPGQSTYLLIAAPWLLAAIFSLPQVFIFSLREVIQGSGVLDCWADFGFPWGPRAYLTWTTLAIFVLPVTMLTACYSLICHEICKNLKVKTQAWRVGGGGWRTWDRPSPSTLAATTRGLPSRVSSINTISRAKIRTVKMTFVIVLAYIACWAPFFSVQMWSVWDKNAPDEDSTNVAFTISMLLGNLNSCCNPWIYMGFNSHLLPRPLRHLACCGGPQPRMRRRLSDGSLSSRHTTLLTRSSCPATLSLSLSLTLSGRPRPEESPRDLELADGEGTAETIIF

Sequence of V1aR (Homo sapiens), P37288 (P37288 whole entry): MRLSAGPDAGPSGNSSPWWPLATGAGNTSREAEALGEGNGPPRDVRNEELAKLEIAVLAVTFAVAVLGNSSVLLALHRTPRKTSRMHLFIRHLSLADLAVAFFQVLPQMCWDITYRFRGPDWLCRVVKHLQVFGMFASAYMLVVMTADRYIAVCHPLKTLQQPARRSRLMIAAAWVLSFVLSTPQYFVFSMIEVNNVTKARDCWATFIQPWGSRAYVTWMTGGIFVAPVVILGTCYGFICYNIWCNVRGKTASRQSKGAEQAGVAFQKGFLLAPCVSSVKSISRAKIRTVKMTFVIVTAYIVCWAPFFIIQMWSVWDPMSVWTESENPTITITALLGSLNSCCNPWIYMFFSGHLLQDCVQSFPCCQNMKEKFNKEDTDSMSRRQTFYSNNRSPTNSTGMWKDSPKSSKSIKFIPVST

B1: inotocin (peptide)
chain: CLITNCPRG
- Ki [1]: > 100000 nM
- Ki [2]: 11 nM
- Ki [3]: 62 nM
- Ki [4]: 12 nM

Reference: publication PMC5286520
